We go through three molecules from patent US12252714B2, “Halogenation of complex organic compounds” (REGENTS OF THE UNIVERSITY OF MICHIGAN, priority 2018, dated 2025).

Positions count from the first letter of the chain named. In names and notes the source's numbering stands. Read-outs that look alike come from different tables or passages of the source.

For data set [1] the following is noted: cited from earlier work.
Data set [2] is described as follows: MalA biochemical activity assays, mutants versus wild-type MalA. The following applies: chlorination of compound 2. The procedure: Biochemical activity assays were performed in a 100 μL volume with the following components: 18 μM MalA, 54 μM HpaC flavin reductase,^3 100 μM FAD, 50 mM NaCl, 250 μM substrate, 5 mM NADH, and brought to total volume with reaction buffer (same as storage bufferNaBr). The chlorination reactions proceeded for 20 minutes and the bromination reactions proceeded overnight. The reactions were extracted with ethyl acetate ([…], in triplicate) and dried down under nitrogen gas. The dried extract was resuspended in LC/MS grade methanol to a concentration of around 10 μM for LC/MS analysis. High resolution mass spectrometry was performed using electrospray ionization on an Agilent quadrupole time-of-flight spectrometer (Q-TOF 6500 series). Biochemical activity was monitored via the following HPLC method using acetonitrile and water: 65% acetonitrile for 5 minutes, gradient over 10 minutes to 95% acetonitrile, 95% acetonitrile for 5 minutes, gradient over 2 minutes to 65% acetonitrile, 65% acetonitrile for 11 minutes to re-equilibrate with a flow rate of 0.3 mL/minute, monitoring at 240 nm on a Phenomenex Lux cellulose-3, cellulose Tris (4-methylbenzoate) 250×4.6 mm column.

B1: Rdc2: eukaryotic FDH Rdc2, literature comparison (protein, UniProt B3FWT7 22-519, looked up)
Flavin-dependent halogenase …: AAALAREGNDVVLLEADQHPRYHIGESMLPSLRPLLRFIDLEDKFDAHGFQKKLGAAFKLTSKREGSHGPRGYSWNVVRSESDEILFNHARESGAQAFQGIKINAIEFEPYEEEYPNGEKVANPGKPTSAKWSSKDGSSGDIAFKYLVDATGRIGIMSTKYLKNRHYNEGLKNLAIWGYYKNNIPWAQGTPRENQPFFEGMRDGAGWCWTIPLHNGTVSVGAVMRKDLFFEKKKSLGENATNTQIMAECMKLCPTIGELLAPAELVSDIKQATDYSYSATAYAGPNFRIVGDAGCFIDPFFSSGHHLAVAGALAAAVSINASIKGDCTEYEASRWHAKKVDEGYTLFLLVVMAALKQIRMQENPVLSDVDEDGFDRAFQFLRPEAVKKFTKEDVAQTIDFAVHALNNMAELDMDIPEHMINGDKEGENGVTNGNNGAAKTAGLASNMEKLTNDEEKVLNGLRILGKAAPGGTLADFEGTAIDGLMPRLEHGKLGLNKV
With B1, the values for the catalytic efficiency in data set [1] (initial chlorination reaction) and in data set [1] (second chlorination reaction) were 2.93 min⁻¹ mM⁻¹ and 0.11 min⁻¹ mM⁻¹, respectively.

B2: MalA K108A: MalA halogenase mutant of the catalytic lysine Lys108 (protein, UniProt L0E155 1-667, looked up, variant K108A)
Flavin-dependent halogenase …: MAPTPKYTFTERAAAGNLSDAEILNSNNPTGSELPDESDVVVGGAGIHGLIYALHASKYKPNNLKISVIEKNTRPGYKIGESTLPIFYTWCKLHGISAAYLLRLFGLADGLCFYFLDRENQGQYTDFCSVGAPGLVLASLQIERPMSELLFTILAQRNGVNVYHGREVDFKSTVVQGGGQGNKIAVSRGKYDSTPKTIDSALFVDATGRFRQFCSKKAPRHRFDGWNCNAFWGYFTAPKDESKIPFDLYEGDHTNHLCFPEGWVWVIRLPSWEGSLIANLMDMVTYILECADAGVPGDELPSSEELARMFGLKFQWVTSIGFAVRNDVKYPEDLSAYGTREAEQKFNYFVQKYELLQQFMSNFELIENLYGPGTTWFIRKTLAYQSPVVSGPGWLAIGDACGFTNPLYSPGINVGMSTSTWAAQLSHRIVEIGKSAPADAAESSIRKLLVPYDDYCKSLVPALEQMNRFNYVCYRDTRLGPQVACLWQFFAGIERYLSDVNIETFAHYAIKWVWGAMVPEYQQVAQKCIEHIETVPLDERLPDAMVDELLAFSNRIKSAAVAADDFSLRWDAILRSFDRSLNFVEGKTSRDIYTRQCSGCGAWLQLRPDWKKCHSCGLLGTEPQTAVTFDPPLTAEEEALLYAAWNTAPKYDPSKELKLPTPTRPAA
B2: the “halogenase activity relative to wild-type MalA” value in data set [2] was “inactive”.

B3: MalA F489H: MalA halogenase variant, Phe489 substituted with histidine (protein, UniProt L0E155 1-667, looked up, variant F489H)
Flavin-dependent halogenase …: B2 Flavin-dependent halogenase … with A108K, F489H
As for B3, the “halogenase activity relative to wild-type MalA” value in data set [2] was “significantly decreased”.
